Results from patent US20040248244.

Columns and labels:
[1] = test system: GST fusion protein containing the first 70 amino acids of p53 (GST-p531-70)
[2] = target: GST-hUpf11019-1118 (GST fused to the carboxyl-terminal region of hUpf1, amino acids 1019-1118) (UniProt Q92900)
PHAS-I/4E-BP1 protein = PHAS-I/4E-BP1 protein (UniProt Q13541)
Sequence of PHAS-I/4E-BP1 protein (Q13541 whole entry): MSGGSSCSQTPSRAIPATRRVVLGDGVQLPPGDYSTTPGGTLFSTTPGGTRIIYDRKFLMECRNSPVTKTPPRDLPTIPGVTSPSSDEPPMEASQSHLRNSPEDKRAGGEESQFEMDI

Sequence of GST fusion protein containing the first 70 amino acids of p53 (GST-p531-70) (chain, as listed by the source): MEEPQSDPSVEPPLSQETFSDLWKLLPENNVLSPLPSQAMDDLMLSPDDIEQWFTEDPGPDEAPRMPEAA
Sequence of GST-hUpf11019-1118 (GST fused to the carboxyl-terminal region of hUpf1, amino acids 1019-1118) (Q92900 1019-1118): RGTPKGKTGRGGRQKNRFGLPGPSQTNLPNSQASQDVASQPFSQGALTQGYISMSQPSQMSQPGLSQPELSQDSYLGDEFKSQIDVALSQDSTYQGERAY

Substance | specific kinase activity in immune complex kinase assay [1] | phosphorylation of substrate in immune complex kinase assay [2] | phosphorylation of substrate in immune complex kinase assay, compared with GST-hUpf11019-1118 [1] | specific kinase activity in immune complex kinase assay (ratio of 32P incorporation into substrate to level of HA-tagged kinase) [1] | phosphorylation of substrate in immune complex kinase assay (PHAS-I/4E-BP1 protein) | phosphorylation of substrate in immune complex kinase assay (GST-p531-70(S15A))
HA-tagged wild-type ATM (HA-ATMWT) | the specific kinase activity of HA-ATXWT towards GST-p531-70 was significantly higher than that of HA-ATM | phosphorylated by both ATM and ATX | – | – | – | –
HA-tagged wild-type ATX (HA-ATXWT) | – | phosphorylated by both ATM and ATX, with the latter protein kinase showing the higher specific catalytic activity | GST-p531-70 was more avidly phosphorylated by ATX than was the GST-hUpf11019-1118 substrate | the specific kinase activity of ATXWT was approximately 3.5-fold higher than that of ATMWT | poorly phosphorylated | nearly abolished
